Experimental data published in patent publication US20150239980A1 (NEOTOPE BOSCIENCES, published 2015).

B1: mouse MCAM expressed on transfected CHO cells (receptor, UniProt Q8R2Y2 24-648, looked up)
chain: VPGEEKQPVPTPDLVEAEVGSTALLKCGPSRASGNFSQVDWFLIHKERQILIFRVHQGKGQREPGEYEHRLSLQDSVATLALSHVTPHDERMFLCKSKRPRLQDHYVELQVFKAPEEPTIQANVVGIHVDRQELREVATCVGRNGYPIPQVLWYKNSLPLQEEENRVHIQSSQIVESSGLYTLKSVLSARLVKEDKDAQFYCELSYRLPSGNHMKESKEVTVPVFYPAEKVWVEVEPVGLLKEGDHVTIRCLTDGNPQPHFTINKKDPSTGEMEEESTDENGLLSLEPAEKHHSGLYQCQSLDLETTITLSSDPLELLVNYVSDVQVNPTAPEVQEGESLTLTCEAESNQDLEFEWLRDKTGQLLGKGPVLQLNNVRREAGGRYLCMASVPRVPGLNRTQLVSVGIFGSPWMALKERKVWVQENAVLNLSCEASGHPQPTISWNVNGSATEWNPDPQTVVSTLNVLVTPELLETGAECTASNSLGSNTTTIVLKLVTLTTLIPDSSQTTGLSTLTVSPHTRANSTSTEKKLPQPESKGVVIVAVIVCTLVLAVLGAALYFFYKKGKLPCGRSGKQEITLPPTRKSEFVVEVKSDKLPEEMALLQGSNGDKRAPGDQGEKYIDLRH
notes: whole, on cells; also called murine MCAM

Tests used:
[1] = molecular target: T1, recombinant human laminin 511 (Biolamina) (human, UniProt O15230 36-3695; P07942 22-1786; P11047 34-1609); assay: flow cytometry, mouse MCAM CHO cells, pan-laminin antibody
T1 construct: negative control; also called laminin 10 (α5β1γ1)

[2] = molecular target: T2, Recombinant human laminin-α4 (R&D systems) (human, UniProt Q16363-2 826-1816); assay: SPR, Biacore T200
T2 construct: also called laminin α-4 chain
T2 sequence (looked up): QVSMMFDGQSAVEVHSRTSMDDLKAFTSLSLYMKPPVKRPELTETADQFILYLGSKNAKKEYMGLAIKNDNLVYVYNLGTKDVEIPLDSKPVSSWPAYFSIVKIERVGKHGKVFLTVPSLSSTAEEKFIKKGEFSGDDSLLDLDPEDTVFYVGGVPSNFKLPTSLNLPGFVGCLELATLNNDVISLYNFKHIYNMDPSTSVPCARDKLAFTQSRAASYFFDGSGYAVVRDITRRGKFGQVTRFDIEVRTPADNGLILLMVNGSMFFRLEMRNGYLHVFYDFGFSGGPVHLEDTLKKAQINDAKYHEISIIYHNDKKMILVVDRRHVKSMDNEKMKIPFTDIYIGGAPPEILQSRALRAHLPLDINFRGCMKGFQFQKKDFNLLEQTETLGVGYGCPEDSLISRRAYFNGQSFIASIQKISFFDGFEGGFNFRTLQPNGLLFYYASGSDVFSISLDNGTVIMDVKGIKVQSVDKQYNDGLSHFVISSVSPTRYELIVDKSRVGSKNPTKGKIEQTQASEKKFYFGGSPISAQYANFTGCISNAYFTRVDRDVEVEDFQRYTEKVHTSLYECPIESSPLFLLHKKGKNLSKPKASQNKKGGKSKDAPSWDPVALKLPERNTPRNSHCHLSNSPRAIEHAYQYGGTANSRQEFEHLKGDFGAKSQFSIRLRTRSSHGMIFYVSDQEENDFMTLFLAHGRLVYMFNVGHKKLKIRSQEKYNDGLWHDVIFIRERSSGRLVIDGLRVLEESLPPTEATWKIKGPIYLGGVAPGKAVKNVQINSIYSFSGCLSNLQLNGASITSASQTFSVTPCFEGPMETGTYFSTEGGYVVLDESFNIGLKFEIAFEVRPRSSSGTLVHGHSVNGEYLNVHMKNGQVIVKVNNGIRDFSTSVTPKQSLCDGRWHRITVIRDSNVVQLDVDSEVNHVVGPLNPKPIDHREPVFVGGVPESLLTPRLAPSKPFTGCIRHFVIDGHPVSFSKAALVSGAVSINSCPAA

[3] = molecular target: T1, recombinant human laminin 511 …; assay: SPR, Biacore T200
[4] = molecular target: T3, human MCAM (melanoma cell adhesion molecule) expressed on transfected CHO cells (human, UniProt P43121 24-646); assay: flow cytometry, human MCAM transfected cells mixed with CFSE-labelled untransfected cells
T3 construct: also called hMCAM; CD146
T3 chain: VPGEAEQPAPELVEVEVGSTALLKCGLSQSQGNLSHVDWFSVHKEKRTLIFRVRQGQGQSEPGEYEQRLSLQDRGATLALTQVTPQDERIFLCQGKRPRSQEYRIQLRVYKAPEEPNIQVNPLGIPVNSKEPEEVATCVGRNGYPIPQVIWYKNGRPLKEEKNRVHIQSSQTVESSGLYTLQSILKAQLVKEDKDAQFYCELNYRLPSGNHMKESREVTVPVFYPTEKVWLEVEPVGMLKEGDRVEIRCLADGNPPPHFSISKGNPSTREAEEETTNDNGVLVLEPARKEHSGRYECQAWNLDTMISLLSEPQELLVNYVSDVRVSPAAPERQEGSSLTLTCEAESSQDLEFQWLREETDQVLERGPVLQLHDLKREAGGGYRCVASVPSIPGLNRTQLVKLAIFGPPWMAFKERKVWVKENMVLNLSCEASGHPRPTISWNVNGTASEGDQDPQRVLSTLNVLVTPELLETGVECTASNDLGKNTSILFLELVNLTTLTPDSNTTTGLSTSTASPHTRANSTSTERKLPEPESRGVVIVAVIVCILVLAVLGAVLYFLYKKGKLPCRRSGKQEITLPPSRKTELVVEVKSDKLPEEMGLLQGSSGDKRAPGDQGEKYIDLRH

[5] = molecular target: B1; assay: flow cytometry, mouse MCAM transfected cells mixed with CFSE-labelled untransfected cells
Procedure: For the generation of antibodies capable of binding to murine MCAM, MCAM-Fc was generated by fusing the extracellular domain of murine MCAM to human IgG and produced in CHO cells using standard techniques. Lou/M rats were immunized with 100 μg of MCAM-Fc protein in CFA (1:1 volume). Rats were boosted two times at two week intervals with MCAM-Fc protein in incomplete Freund's adjuvant (IFA) (1:1 volume). Hybridomas were generated from immunized rats using standard protocols and clones were selected by Clonepix. CHO cells were transfected with the full length murine MCAM gene and selected for stable expression using neomycin and standard techniques. Parental CHO cells (MCAM negative) were fluorescently labeled with carboxyfluorescein succinimidyl ester (CFSE) using standard techniques and mixed at a 1:1 ratio with unlabeled MCAM transfected CHO cells. Hybridoma supernatants were incubated with this mixture of cells for 30 minutes and binding of potential MCAM specific antibodies was detected with a fluorescently labeled anti-rat secondary antibody (Jackson Immuno) by flow cytometry.

[6] = molecular target: T4, murine MCAM-Fc fusion protein (mouse, UniProt Q8R2Y2 24-563); assay: ForteBio Octet Red, anti-human IgG Fc (AHC) biosensors loaded with mouse MCAM-hFc proteins (5 ug/ml), dipped into antibody (5 ug/ml) or SP2 media
T4 construct: extracellular domain; produced in CHO cells; also called mouse MCAM-Fc; mouse MCAMhFc; not shown: fused to human IgG
T4 sequence (looked up): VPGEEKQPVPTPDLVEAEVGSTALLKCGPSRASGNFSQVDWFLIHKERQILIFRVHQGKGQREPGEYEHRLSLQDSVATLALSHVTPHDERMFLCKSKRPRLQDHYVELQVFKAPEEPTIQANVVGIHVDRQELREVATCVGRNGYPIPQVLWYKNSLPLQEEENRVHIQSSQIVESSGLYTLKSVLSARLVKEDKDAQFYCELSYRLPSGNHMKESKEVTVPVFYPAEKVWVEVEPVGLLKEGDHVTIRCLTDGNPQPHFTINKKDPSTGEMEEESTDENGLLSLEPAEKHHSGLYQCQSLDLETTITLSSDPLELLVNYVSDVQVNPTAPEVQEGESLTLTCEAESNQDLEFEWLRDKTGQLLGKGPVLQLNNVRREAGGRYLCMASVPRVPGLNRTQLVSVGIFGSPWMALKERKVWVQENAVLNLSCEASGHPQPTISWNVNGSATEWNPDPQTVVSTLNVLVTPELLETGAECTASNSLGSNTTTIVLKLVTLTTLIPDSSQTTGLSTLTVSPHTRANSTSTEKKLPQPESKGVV
From the text: (§1) The following protocol was used: ForteBio Domain Mapping Protocol. ForteBio anti-human IgG Fc biosensors were used to immobilize various mouse MCAMhFc domains including full length mouse MCAMhFc protein on to biosensor surface. These sensors were dipped into either clone 15 or 17 MCAM specific antibody for detection of binding to these domains or full length protein. After loading these samples into a black 96 well plate, the Octet Red was programmed as follows: 60 seconds for baseline #1; 180 seconds for loading various domains; 60 seconds for baseline #2; 180 seconds for association of antibody to domain; and 240 seconds for dissociation of antibody from domain.
(§2) 1. Mouse MCAMhFc final concentration @ 5 ug/ml [0466] 2. Antibody clone 15 or 17 @ 5 ug/ml [0467] 3. ForteBio anti-human IgG Fc Capture (AHC) biosensors for kinetics experiments, cat#18-5060 [0468] 4. […] 5. ForteBio Octet Red machine [0470] 6. Fresh tissue culture medium, DMEM with 20% FCS, was used as buffer for dilution
(§3) For FIGS. 10A-B, clones 15 and 17 were tested against the following protein samples (all have human IgG Fc tag): Murine MCAM; Human Fc full length protein; Murine MCAM domain 1 (Ig1); Murine MCAM domain 2 (Ig2); and Murine MCAM domain 1 and 2 (Ig1-2A).

Ig2 domain = molecular target: T5, Ig2 domain (mouse, UniProt Q8R2Y2); assay: as above
T5 construct: isolated domain 2; also called Murine MCAM domain 2 (Ig2) with human IgG Fc tag
T5 sequence (Fc fusion chain, looked up): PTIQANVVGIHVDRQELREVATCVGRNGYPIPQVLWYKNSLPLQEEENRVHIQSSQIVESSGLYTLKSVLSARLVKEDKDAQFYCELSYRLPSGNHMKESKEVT
From the text: as §1, §2, §3

[7] = molecular target: T6, Murine MCAM domain 1 (Ig1) with human IgG Fc tag (mouse, UniProt Q8R2Y2 24-131, limits assumed); assay: ForteBio Octet Red, domain-hFc on anti-human IgG Fc sensor
T6 construct: domain: domain 1 (Ig1); also called MCAM Fc domain 1; Fc domain 1 alone; not shown: human IgG Fc tag
T6 sequence (looked up): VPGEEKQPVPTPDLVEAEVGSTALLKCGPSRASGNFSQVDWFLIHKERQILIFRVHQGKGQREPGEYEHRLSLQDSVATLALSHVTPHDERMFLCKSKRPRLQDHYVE
From the text: as §1, §2

B1: no binding (tested: 10 µg/ml) [1].

B2: human MCAM domain 1 (amino acids 19-129), Fc-tagged (Fc fusion, not shown: a dimerising Fc or GST)
chain: PRVAGVPGEAEQPAPELVEVEVGSTALLKCGLSQSQGNLSHVDWFSVHKEKRTLIFRVRQGQGQSEPGEYEQRLSLQDRGATLALTQVTPQDERIFLCQGKRPRSQEYRIQ
notes: also called MCAM Fc domain 1
B2: no binding (tested: 5-175 nM) [2]; no binding (tested: 5-175 nM) [3].

B3: anti-MCAM monoclonal antibody clone 15 (antibody, V domains shown)
VH: EVRLVESGGGLVQPGKSMKLSCVASGFKFSNYYMSWVRQAPAKGLEWVASISDGGGDTFCRDLVKGRFTISRDNAKSTLYLQMDSLRPEDTATYYCARRGAAMGGVMDAWGQGTSVTVSS
VL: DIVMTQSPSSLAVSAGETVSIHCKSSQSLLYSGTQKNYLAWFQQKPGQSPKLLIFWASTRQSGVPDRFIGRGSGTDFTLTISGVQAEDLAIYYCQQYYDTLTDTFGAGTKLELKR
notes: rat monoclonal raised against murine MCAM-Fc; also called Anti-MCAM Clone 15; anti-mouse MCAM clone 15
B3: no binding [4]; binds [5]; binds [6]. B3: no binding (tested: 5 ug/ml) (Ig2 domain); no binding (tested: 5 ug/ml) [7].
